Assay results reported in article PMC11077055, “Structure-functional characterization of Lactococcus AbiA phage defense system” (Nucleic Acids Research, 2024).
Substitutions are numbered along the chain they refer to. Names may count otherwise.

B1: His6-SUMO-AbiA fusion protein (full-length AbiA from L. lactis with uncleaved SUMO tag) (enzyme, UniProt Q48596 1-628, looked up)
chain: MITLQHQDWERAVNMIKNIPPSAKNKYFQTFPFFLLSETSWEELLSENFFYSYIKSGEFLTYQENLSFYDRTIQKSHGAYRQTRIVSPIIYIFLIAIASQVERIYVEKRTNDMSVYFSGSFEKEKNTAHYKQSYNTYMTELNACQEEFDYYFQTDFSTFFHLVDTDNLFNKIDRLDPKSALVYSSLIKMIGQGRMPIVDGNSGLSFLNTVVYLDDFDKEIIDSLKTIVEIESFKLVRYVDDLHIFIKCANKDLDFLNYKVYNLLCEKATKHHLEINSSKTKSFTPTSELSTKMNTDLYNFFVYNEDVDFEQYFSKNTLIEFLDKLNNMSVNADFSEYEKEVLYTLENPEIVSDGSYILNAIVYNKSTWSQDYDIKNKISLLVNSNYRKLRYSAKALITLVLNTRDGDIIKGLLNNLFTTFKNGTNDIIDEIILIEYLVQRKFNHKDLMTILKADDHGIKEYIKAYQTSDFIKSLEKNKVIFYTNQKEVYPLISKDKILNFIYFRAKYFESLDLVLESFAYYKNYFDRFVAHAMFCTGIDSGRKPNYKLYYTEGKLIDGLKQLNFLSSDEITKIINEAHKIRNSNPVSHSSAGLLQNEDFSRYRVKSSLNDLKIIIEQLSTLLQNKNRL
modifications: co-purified ssDNA; the paper shows covalent attachment, with priming at Tyr298 or Tyr303, on the His-tagged protein; 5-9 nt visible in the structure
notes: AbiA, plasmid-encoded abortive infection RT-like polymerase of Lactococcus lactis, full length, 628 amino acid residues; synthetic gene in pET28a-SUMO; The SUMO tag is not visible in the structure; also called full-length SUMO-tagged AbiA; AbiA with an uncleaved SUMO tag; source: E. coli BL21 STAR, purified (HisTrap HP, Superdex 200); not shown: His6, N-terminal, kept; SUMO, N-terminal, kept
B2: AbiA Y80W/T269W (enzyme, L. lactis, UniProt Q48596 1-628, looked up)
chain: B1 chain with Y80W, T269W
notes: AbiA of Lactococcus lactis, 628 residues, with tryptophan substitutions in the dimer interface; The methods say point substitutions were introduced into the N-terminal His6-tag construct; Expression and purification of this variant are not described separately
B3: AbiA Y80W/T269W/L515W (enzyme, L. lactis, UniProt Q48596 1-628, looked up)
chain: B1 chain with Y80W, T269W, L515W
notes: as for B2
B4: full-length untagged AbiA (enzyme, L. lactis, UniProt Q48596 1-628, looked up)
chain: B1 chain
modifications: co-purified ssDNA covalently attached (priming at Tyr298 or Tyr303)
notes: AbiA, plasmid-encoded abortive infection RT-like polymerase of Lactococcus lactis, full length, 628 amino acid residues; The results call it 'untagged'; The only SUMO-free construct in the methods carries an N-terminal His6-tag, and the SUMO tag could not be cleaved, so this is probably His6-AbiA; also called AbiA without SUMO tag; AbiA without a tag; source: E. coli BL21 STAR, purified (HisTrap …)
B5: AbiA L515W (enzyme, L. lactis, UniProt Q48596 1-628, looked up)
chain: B1 chain with L515W
notes: AbiA of Lactococcus lactis, 628 residues, with a tryptophan substitution in the dimer interface; The methods say point substitutions were introduced into the N-terminal His6-tag construct; Expression and purification of this variant are not described separately
B6: AbiA L162W/R601A (enzyme, L. lactis, UniProt Q48596 1-628, looked up)
chain: B1 chain with L162W, R601A
notes: AbiA of Lactococcus lactis, 628 residues, with substitutions in the dimer interface; The methods say point substitutions were introduced into the N-terminal His6-tag construct; Expression and purification of this variant are not described separately

Key:
[1] = target: T1, AbiA (Lactococcus lactis, UniProt Q48596); assay: extension of […]-labelled co-purified covalently attached DNA, urea-PAGE autoradiography; format: biochemical; conditions: 200 uM single dNTP, 50 mM Tris pH 7.0, 250 mM NaCl, 10 mM MgCl2, 5 mM DTT, 37 C; DNA pre-labelled with alpha-33P-dATP; template-independent, protein-primed
T1 construct: full-length, 628 residues, N-terminal His6-tag kept (no SUMO), made in E. coli BL21 Star; plasmid-encoded in the source; homodimer (148 kDa theoretical); co-purifies with covalently attached ssDNA
T1 sequence (Q48596 1-628): B1 chain

[2] = target: the molecule itself; assay: SEC-MALS; Superdex 200 Increase 10/300 GL; 25 mM Tris pH 7.0, 400 mM NaCl, 2% glycerol, 1 mM DTT; 0.75 ml/min; self-association of AbiA variants
[3] = target: the molecule itself; assay: SEC-MALS; GF/MALS of tryptophan substitution variants of the dimer interface; data not shown

Row | Molecule | stoichiometry N [3] | also measured
1 | Nc1ncnc2c1ncn2[C@H]1C[C@H](O)[C@@H](COP(=O)(O)OP(=O)(O)OP(=O)(O)O)O1 [dATP] |  | extension of 33P-labelled co-purified covalently attached DNA, urea-PAGE autorad [1]: dATP and dCTP were incorporated with efficiencies similar to those observed with dNTP mix
2 | Nc1ccn([C@H]2C[C@H](O)[C@@H](COP(=O)(O)OP(=O)(O)OP(=O)(O)O)O2)c(=O)n1 [dCTP] |  | extension of 33P-labelled co-purified covalently attached DNA, urea-PAGE autorad [1]: dATP and dCTP were incorporated with efficiencies similar to those observed with dNTP mix
3 | B1 |  | stoichiometry N [2]: 2
4 | B2 | 2 | 
5 | B3 | 2 | 
6 | B4 |  | stoichiometry N [2]: 2
7 | B5 | 2 | 
8 | B6 | 2 | 
